The source of these data is publication PMC9271601 (Structure (London, England : 1993), 2022).

Assay [1] addresses H7 (SH13) HA probe (Influenza A virus A/Shanghai/02/2013 …, UniProt R4NN21, strain, biotin (biotin protein ligase, AviTag)). The experiment in a line: flow cytometry on cells. For orientation: In flow cytometry, cells or beads pass a laser one at a time.
Assay [2] deals with H9N2 A/Hong Kong/1073/99 hemagglutinin trimer, wild type (Influenza A virus A/Hong Kong/1073/99 …, UniProt Q9ICY5, strain). The assay can be described thus: BLI. On the technique in general: Biolayer interferometry detects binding as a change in optical thickness at a sensor tip.

B1: 1D12 B cell receptor on the donor's B cell (antibody, V domains shown)
VH: QLVQSGAEVKKPGASVKVSCKASGYTFTGYYLHWVRQAPGQGLEWMGRINPDTGGTNYAQKFQGRVSMTRDMSISTHYMELSRLTSDDTAVYYCATKRGAVTAMVYYYFYGMDVWGQGTTVTVSS
VL: DIVMTQSPLSLSVTPGEPASISCRSSHSLLHLNGYNYLDWYLQKPGQSPQLLIYLGSNRASGVPDRFSGSGSGTDFTLKISRVEAEDVGIYYCMQALRTPPGLTFGGGTKVDIK
As to B1, the binding result in assay [1] was “binds”.

B2: 315–19-1D12 Fab (Fab, V domains shown)
VH: QLVQSGAEVKKPGASVKVSCKASGYTFTGYYLHWVRQAPGQGLEWMGRINPDTGGTNYAQKFQGRVSMTRDMSISTHYMELSRLTSDDTAVYYCATKRGAVTAMVYYYFYGMDVWGQGTTVTVSS
VL: DIVMTQSPLSLSVTPGEPASISCRSSHSLLHLNGYNYLDWYLQKPGQSPQLLIYLGSNRASGVPDRFSGSGSGTDFTLKISRVEAEDVGIYYCMQALRTPPGLTFGGGTKVDIK
As for B2, the binding result in assay [2] is on record as “binds”.
